Measured values from patent US20150044236A1.
No end group written: not given here.

B1: anti-DNP antibody 3B1 (purified from hybridoma) (antibody, human IgG2, kappa, V domains shown)
VH: QVQLQESGPGLVKPSETLSLTCTVSGGSISSYYWSWIRQPPGKGLEWIGYIYYSGNTNSNPSLKSRVTISVDTSKNQFSLKLSSVTAADTAVYYCARTYYDSSGYYYRAFDIWGQGTMVTVSS
VL: DIQMTQSPSSLSASEGDRVTITCRASQGIRNDLGWYQQKPGKAPKRLIYAASSLQSGVPLRFSGSGSGTEFTLTISSLQPEDFATYYCLQYNSYPWTFGQGTKVEIKR
B2: anti-DNP antibody 3B1-G2 (recombinant, CHO) (antibody, human IgG2, kappa, V domains shown)
VH: B1 VH
VL: B1 VL
B3: anti-DNP antibody 3A1 (purified from hybridoma) (antibody, human IgG2, kappa, V domains shown)
VH: QVQLQESGPGLVKPSETLSLTCTVSGGSISHYYWSWIRQPPGKGLGWIGYIYYSGSTNYNPSLKSRVTISVDTSKNQFSLKLTSVTAADTAVYYCARARGDGYNYPDAFDIWGQGTMVTVSS
VL: DIQMTQSPSSVSASVGDRVTITCRASQGISNWLAWYQRKPGKAPKLLIYAASSLQSGVPSRFSGSGSGTDFTLTISSLQPEDFAAYYCQQASSFPWTFGQGTRVEIKR
B4: Bivalent Fc-L10-ShK[1-35] homodimer (IgG1) (Fc fusion)
chain: GGGGSGGGGSRSCIDTIPKSRCTAFQCKHSMKYRLSFCRKTCGTC
modifications: not fully specified (N-terminus, bridges); ends and bridges not checked; also: bivalent homodimer via IgG1 Fc
B5: Bivalent Fc-L10-ShK[2-35] homodimer (IgG1) (Fc fusion)
chain: GGGGSGGGGSSCIDTIPKSRCTAFQCKHSMKYRLSFCRKTCGTC
modifications: not fully specified (N-terminus, bridges); ends and bridges not checked; also: bivalent homodimer via IgG1 Fc

Legend:
[1] = target: human Kv1.3 voltage-gated potassium channel (human) (UniProt P22001); assay: cell-based or functional assay
Sequence of human Kv1.3 voltage-gated potassium channel (human) (P22001 whole entry): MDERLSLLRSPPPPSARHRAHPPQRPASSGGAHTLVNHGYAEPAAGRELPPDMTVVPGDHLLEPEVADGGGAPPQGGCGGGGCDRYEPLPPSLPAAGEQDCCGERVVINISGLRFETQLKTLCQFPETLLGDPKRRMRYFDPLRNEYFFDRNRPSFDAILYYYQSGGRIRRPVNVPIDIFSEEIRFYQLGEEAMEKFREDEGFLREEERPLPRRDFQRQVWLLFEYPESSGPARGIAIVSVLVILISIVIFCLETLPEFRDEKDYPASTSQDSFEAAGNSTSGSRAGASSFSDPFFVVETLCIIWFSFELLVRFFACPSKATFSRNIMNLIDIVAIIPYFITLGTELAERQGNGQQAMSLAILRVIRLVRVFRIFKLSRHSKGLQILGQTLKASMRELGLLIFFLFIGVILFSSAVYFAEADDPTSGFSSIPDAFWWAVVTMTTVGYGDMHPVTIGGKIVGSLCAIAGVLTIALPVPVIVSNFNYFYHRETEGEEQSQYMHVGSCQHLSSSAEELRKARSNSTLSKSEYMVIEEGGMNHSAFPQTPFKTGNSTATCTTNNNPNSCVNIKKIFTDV

[2] = target: human Kv1.1 voltage-gated potassium channel (human) (UniProt Q09470); assay: cell-based or functional assay
Sequence of human Kv1.1 voltage-gated potassium channel (human) (Q09470 whole entry): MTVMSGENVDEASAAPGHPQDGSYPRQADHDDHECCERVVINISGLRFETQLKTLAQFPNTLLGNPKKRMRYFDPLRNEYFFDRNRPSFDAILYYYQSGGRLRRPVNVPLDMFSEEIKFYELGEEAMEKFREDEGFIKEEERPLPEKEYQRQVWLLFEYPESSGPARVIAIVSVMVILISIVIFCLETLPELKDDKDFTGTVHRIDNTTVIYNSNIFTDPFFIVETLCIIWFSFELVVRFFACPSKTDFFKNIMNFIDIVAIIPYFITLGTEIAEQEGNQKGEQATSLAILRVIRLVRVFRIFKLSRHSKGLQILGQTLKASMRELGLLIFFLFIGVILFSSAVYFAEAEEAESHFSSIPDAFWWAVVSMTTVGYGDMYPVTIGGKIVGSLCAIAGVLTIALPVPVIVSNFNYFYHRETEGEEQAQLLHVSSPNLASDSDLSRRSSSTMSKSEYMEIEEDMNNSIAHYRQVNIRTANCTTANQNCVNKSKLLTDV

[3] = target: DNP(31)-BSA (2,4-dinitrophenol conjugated to bovine serum albumin, 31 DNP moieties per BSA) (bovine) (UniProt P02769); assay: BIAcore SPR; antibody captured on anti-human IgG Fc surface, DNP(31)-BSA injected (0.78-100 nM); apparent constants
Sequence of DNP(31)-BSA (2,4-dinitrophenol conjugated to bovine serum albumin, 31 DNP moieties per BSA) (bovine) (P02769 25-607 limits assumed): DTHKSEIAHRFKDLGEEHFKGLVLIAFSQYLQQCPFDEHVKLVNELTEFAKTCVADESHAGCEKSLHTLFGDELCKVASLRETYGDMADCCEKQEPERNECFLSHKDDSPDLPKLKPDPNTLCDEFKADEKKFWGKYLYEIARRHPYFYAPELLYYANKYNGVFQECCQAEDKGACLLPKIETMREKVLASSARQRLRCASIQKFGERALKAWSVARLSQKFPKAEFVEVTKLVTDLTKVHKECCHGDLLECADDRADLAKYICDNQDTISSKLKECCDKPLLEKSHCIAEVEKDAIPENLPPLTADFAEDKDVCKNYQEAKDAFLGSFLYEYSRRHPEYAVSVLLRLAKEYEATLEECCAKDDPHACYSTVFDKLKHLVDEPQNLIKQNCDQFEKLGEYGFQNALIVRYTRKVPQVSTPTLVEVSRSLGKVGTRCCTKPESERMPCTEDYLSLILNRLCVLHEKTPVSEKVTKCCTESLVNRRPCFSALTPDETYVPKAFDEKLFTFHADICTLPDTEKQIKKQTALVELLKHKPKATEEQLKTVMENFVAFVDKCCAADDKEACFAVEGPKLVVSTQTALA

[4] = target: DNP(3)-BSA (2,4-dinitrophenol conjugated to bovine serum albumin, 3 DNP moieties per BSA) (bovine) (UniProt P02769); assay: BIAcore SPR; antibody captured on anti-human IgG Fc surface, DNP(3)-BSA injected (0.78-100 nM); apparent constants
Sequence of DNP(3)-BSA (2,4-dinitrophenol conjugated to bovine serum albumin, 3 DNP moieties per BSA) (bovine) (P02769 25-607 limits assumed): as above

[5] = target: DNP(31)-BSA (2,4-dinitrophenol conjugated to bovine serum albumin, 31 DNP moieties per BSA) (bovine) (UniProt P02769); assay: BIAcore SPR; antibody captured on anti-human IgG Fc surface, DNP(31)-BSA injected (0.39-50 nM); apparent constants
[6] = target: DNP(3)-BSA (2,4-dinitrophenol conjugated to bovine serum albumin, 3 DNP moieties per BSA) (bovine) (UniProt P02769); assay: BIAcore SPR; antibody captured on anti-human IgG Fc surface, DNP(3)-BSA injected (0.78-100 nM); apparent constants; DNP(3)-BSA, not DNP(31)-BSA

Molecule	Potency Relative to ShK (WB, IL2) [1] [fold]	WB (IFNg) IC50 [1] [nM]	WB (IL-2) IC50 [1] [nM]	Kv1.1 IC50 (asterisk: whole cell patch clamp) [2] [nM]	Kv1.3 IC50 (asterisk: whole cell patch clamp) [1] [nM]	further results
Monovalent Fc/Fc-L10-ShK[2-35] heterodimer (IgG1) (Fc fusion)	32.1	5.2	2.15	–	–	–
20 kDa-PEG-[Lys16]ShK (peptide)	1.37	–	–	–	–	–
20 kDa-PEG-ShK (peptide)	5.67	–	–	1.63	0.299	–
B1	–	–	–	–	–	Kd [3]: 0.2 nM; koff [3]: 5.8e-05 s⁻¹; kon [3]: 370000 M⁻¹ s⁻¹; Kd [4]: 3 nM; koff [4]: 0.00036 s⁻¹; kon [4]: 140000 M⁻¹ s⁻¹
B2	–	–	–	–	–	Kd [5]: 0.7 nM; koff [5]: 0.00031 s⁻¹; kon [5]: 420000 M⁻¹ s⁻¹
B3	–	–	–	–	–	kon [6]: 1200 M⁻¹ s⁻¹; Kd [3]: 9 nM; koff [3]: 0.00031 s⁻¹; kon [3]: 34000 M⁻¹ s⁻¹; Kd [4]: 526 nM; koff [4]: 0.00065 s⁻¹
B4	5.76	0.32	0.386	0.067	0.015	–
B5	8.73	2.29	0.585	0.411	0.116	–
